Laboratory results: PMC6213154, “Mapping the Contact Sites of the Escherichia coli Division-Initiating Proteins FtsZ and ZapA by BAMG Cross-Linking and Site-Directed Mutagenesis” (International Journal of Molecular Sciences, 2018)

B1: FtsZ (Filamenting temperature sensitive Z), Escherichia coli (natural protein, E. coli, UniProt P0A9A6 1-383, looked up)
chain: MFEPMELTNDAVIKVIGVGGGGGNAVEHMVRERIEGVEFFAVNTDAQALRKTAVGQTIQIGSGITKGLGAGANPEVGRNAADEDRDALRAALEGADMVFIAAGMGGGTGTGAAPVVAEVAKDLGILTVAVVTKPFNFEGKKRMAFAEQGITELSKHVDSLITIPNDKLLKVLGRGISLLDAFGAANDVLKGAVQGIAELITRPGLMNVDFADVRTVMSEMGYAMMGSGVASGEDRAEEAAEMAISSPLLEDIDLSGARGVLVNITAGFDLRLDEFETVGNTIRAFASDNATVVIGTSLDPDMNDELRVTVVATGIGMDKRPEITLVTNKQVQQPVMDRYQQHGMAPLTQEQKPVAKVVNDNAPQTAKEPDYLDIPAFLRKQAD
notes: FtsZ, Escherichia coli; tryptic peptides up to the C-terminal KQAD (residues 380-383) were identified; In the cross-linking experiments a 1:1 mixture of 14N- and 15N-labelled FtsZ was used (about 95% 15N); Polymerised with GTP into protofilaments; also called ^14N-FtsZ; ^15N-FtsZ; source: E. coli BL21(DE3) pRRE6, isolated as described [52]
B2: ZapA (Z associated protein A), Escherichia coli (natural protein, E. coli)
chain: MSAQPVDIQIFGRSLRVNCPPDQRDALNQAADDLNQRLQDLKERTRVTNTEQLVFIAALNISYELAQEKAKTRDYAASMEQRIRMLQQTIEQALLEQGRITEKTNQNFE
notes: ZapA, Escherichia coli; source: isolated using a His-tagged version, His-tag removed by proteolysis, as described [8]

What was measured:
[1] = target: the molecule itself; assay: cross-linking; BAMG, LC-MS/MS; bundling conditions: FtsZ (14N:15N 1:1) without ZapA, 10 mM CaCl2, 30 uM GTP, polymerization buffer pH 7.5, 30 °C
[2] = target: B1; assay: cross-linking; BAMG (100-150 uM) added 30-60 s after GTP, 30 min at 30 °C; trypsin digest, enrichment on ARCO resin, SCX, LC-MS/MS; 3.4 uM FtsZ (14N:15N 1:1), 6.8 uM ZapA, 50 mM HEPES pH 7.5, 50 mM KCl, 5 mM MgCl2, 60 uM GTP; no Ca2+; details: both partners purified
[3] = target: the molecule itself; assay: as above

Binder	binding result [1]	binding result [2]	stoichiometry N [3]
B1	binds		
B2		binds	4
